According to patent US20250163137A1:

Key:
[1] = target: human FDP (fibrin-fibrinogen degradation products) (human) (UniProt P02671); assay: comparison drawn from Tables 3 and 4 (kinetic analysis and affinity test)
[2] = target: human FDP (fibrin-fibrinogen degradation products) (human) (UniProt P02671); assay: kinetic analysis, 1:1 binding fit (RU read-out; instrument not named)
[3] = target: human FDP (fibrin-fibrinogen degradation products) (human) (UniProt P02671); assay: affinity test (RU read-out; instrument not named)

fold binding capacity against canine FDP [1]: 10 fold
Kd [2]: 16.5 nM
koff [2]: 0.00225 s⁻¹
kon [2]: 136000 M⁻¹ s⁻¹
Kd [3]: 157 nM
B1: mAb 14G12-5 (antibody, V domains shown)
VH: EVQLVESGGGLVKPGGSLKLSCAASGFAFNAYDMSWVRQTPEKRLEWVAYISSSGDYTYYPDTVKGRFTVSRDNAKSTLYLHMGSLKSEDTAMYYCAVYYHYDEGLDYWGQGTALTVSS
VL: QIVLIQSPAIMSASPGEKVTMTCSASSSVNYMHWYQQKSGTSPKRWIYDTSKLASGVPARFSGSGSGTSYSLTISSMEAEDAATYYCQQWSSNPPTFGGGTKLEIKR
